Experimental data as given in article PMC7113306.
Like-named read-outs stand apart in the source and are kept apart here.

Legend:
[1] = target: ALK1-Fc (ALK1 extracellular domain-Fc fusion protein) (UniProt P37023); experiment: SPR; Biacore T100; ALK1-Fc (800 RU) or ALK1 monomer (270 RU) amine-coupled to a CM5 chip; ligands injected at 30 μl min^-1 in 0.01 M HEPES pH 7.4, 0.5 M NaCl, 3 mM EDTA, 0.5 mg ml^-1 BSA, 0.01% P20, 25 °C; 1:1 model with mass transport limitations; KD = kd/ka
[2] = target: ALK1-Fc ECD (Homo sapiens) (UniProt P37023); conditions: cited from earlier work
Sequence of ALK1-Fc ECD (Homo sapiens) (P37023 22-118): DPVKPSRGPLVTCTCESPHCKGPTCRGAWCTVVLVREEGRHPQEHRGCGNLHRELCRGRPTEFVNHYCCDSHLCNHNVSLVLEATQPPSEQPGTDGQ

[3] = target: ALK1-Fc ECD (Homo sapiens) (UniProt P37023); conditions: cited from earlier work; remark: listed apart in the source

Sequence of ALK1-Fc (ALK1 extracellular domain-Fc fusion protein) (P37023 22-118): as above
Sequence of BMP10 (O95393 317-424): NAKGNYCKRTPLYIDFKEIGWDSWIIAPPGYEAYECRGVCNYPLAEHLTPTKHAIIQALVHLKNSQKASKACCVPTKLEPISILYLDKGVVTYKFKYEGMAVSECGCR
Sequence of BMP9 (Q9UK05 320-429): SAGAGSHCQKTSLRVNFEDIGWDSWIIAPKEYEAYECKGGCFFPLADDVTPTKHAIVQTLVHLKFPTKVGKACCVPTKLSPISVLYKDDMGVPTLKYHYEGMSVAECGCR

| Kd [1] [nM] | Substance | also measured |
| --- | --- | --- |
| 0.0343 | BMP10 GF-domain (bone morphogenetic protein 10 growth factor domain) (from UniProt O95393 317-424) (ligand) | – |
| – | BMP10 (from UniProt O95393) | Kd [2]: 0.0103 nM |
| 0.0481 | BMP9 GF-domain (bone morphogenetic protein 9 growth factor domain) (from UniProt Q9UK05 320-429) (ligand) | – |
| – | BMP9 (from UniProt Q9UK05) | Kd [3]: 0.0452 nM |
